Results taken from the Immune Epitope Database (IEDB).

How the values were obtained:
[1] = target: HLA-C*01:02; experiment: IEDB peptide-MHC binding, purified MHC/direct/fluorescence; filed as Kd, often an IC50 or EC50 that approximates it; ≥ and ≤ were set here for values at or beyond the usual limits of such assays; conditions: source organism: Homo sapiens
[2] = target: HLA-A*03:01; experiment: IEDB peptide-MHC binding, purified MHC/competitive/fluorescence; filed as Kd, often an IC50 or EC50 that approximates it; ≥ and ≤ were set here for values at or beyond the usual limits of such assays; conditions: source organism: Human immunodeficiency virus 1
[3] = target: HLA-A*26:01; experiment: as above; conditions: source organism: Human immunodeficiency virus 1
[4] = target: HLA-A*30:01; experiment: as above; conditions: source organism: Human immunodeficiency virus 1
[5] = target: HLA-B*08:02; experiment: as above; conditions: source organism: Human immunodeficiency virus 1
[6] = target: HLA-A*11:01; experiment: as above; conditions: source organism: Human immunodeficiency virus 1
[7] = target: HLA-A*31:01; experiment: as above; conditions: source organism: Human immunodeficiency virus 1
[8] = target: HLA-A*26:03; experiment: as above; conditions: source organism: Human immunodeficiency virus 1
[9] = target: HLA-A*03:01; experiment: IEDB peptide-MHC binding, purified MHC/direct/fluorescence; filed as Kd, often an IC50 or EC50 that approximates it; ≥ and ≤ were set here for values at or beyond the usual limits of such assays; conditions: source organism: Giardia lamblia ATCC 50803
[10] = target: HLA-A*02:06; experiment: as above; conditions: source organism: Giardia lamblia ATCC 50803
[11] = target: HLA-A*02:01; experiment: as above; conditions: source organism: Giardia lamblia ATCC 50803
[12] = target: HLA-B*40:01; experiment: as above
[13] = target: HLA-A*24:02; experiment: as above; conditions: source organism: Giardia lamblia ATCC 50803
[14] = target: HLA-B*58:01; experiment: as above
[15] = target: HLA-B*18:01; experiment: as above; conditions: source organism: Giardia lamblia ATCC 50803
[16] = target: HLA-B*15:01; experiment: as above; conditions: source organism: Giardia lamblia ATCC 50803
[17] = target: HLA-A*02:11; experiment: as above; conditions: source organism: Giardia lamblia ATCC 50803
[18] = target: HLA-B*46:01; experiment: as above
[19] = target: HLA-B*08:02; experiment: as above
[20] = target: HLA-A*02:12; experiment: as above; conditions: source organism: Giardia lamblia ATCC 50803
[21] = target: HLA-A*02:16; experiment: as above; conditions: source organism: Giardia lamblia ATCC 50803
[22] = target: HLA-B*07:02; experiment: as above
[23] = target: HLA-A*11:01; experiment: as above
[24] = target: HLA-A*01:01; experiment: as above; conditions: source organism: Giardia lamblia ATCC 50803
[25] = target: HLA-B*44:02; experiment: as above; conditions: source organism: Giardia lamblia ATCC 50803
[26] = target: HLA-A*31:01; experiment: as above
[27] = target: HLA-B*27:05; experiment: as above
[28] = target: HLA-A*02:03; experiment: IEDB peptide-MHC binding, purified MHC/competitive/fluorescence; filed as Kd, often an IC50 or EC50 that approximates it; ≥ and ≤ were set here for values at or beyond the usual limits of such assays; conditions: source organism: Giardia lamblia ATCC 50803
[29] = target: HLA-B*57:01; experiment: IEDB peptide-MHC binding, purified MHC/direct/fluorescence; filed as Kd, often an IC50 or EC50 that approximates it; ≥ and ≤ were set here for values at or beyond the usual limits of such assays; conditions: source organism: Mycobacterium tuberculosis
[30] = target: HLA-A*68:02; experiment: as above; conditions: source organism: Mycobacterium tuberculosis
[31] = target: HLA-B*08:03; experiment: as above; conditions: source organism: Mycobacterium tuberculosis str. Haarlem
[32] = target: HLA-B*08:01; experiment: as above; conditions: source organism: Mycobacterium tuberculosis str. Haarlem
[33] = target: HLA-B*48:01; experiment: as above; conditions: source organism: Mycobacterium tuberculosis
[34] = source organism: Giardia lamblia ATCC 50803
[35] = source organism: Mycobacterium tuberculosis

Question: With PLPDRSLPAL as the sequence, how does the Kd [1] read?
Answer: ≤ 0.0001 µM

Question: Which Kd [2] does the source give for IATLYCVHQR here?
Answer: ≥ 20 µM

Question: What about the Kd [3] of the same sequence?
Answer: ≥ 20 µM

Question: What about the Kd [4] of the same sequence?
Answer: 5.99 µM

Question: And the Kd [5]?
Answer: ≥ 20 µM

Question: What about the Kd [6] of the same sequence?
Answer: 5.82 µM

Question: And the Kd [7]?
Answer: 0.761 µM

Question: And the Kd [8]?
Answer: ≥ 20 µM

Question: Which Kd [9] does the source give for HCIDKTPGL here?
Answer: ≥ 20 µM

Question: What about the Kd [10] of the same sequence?
Answer: 0.106 µM

Question: What about the Kd [11] of the same sequence?
Answer: 0.319 µM

Question: And the Kd [12, 34]?
Answer: ≥ 20 µM

Question: What about the Kd [13] of the same sequence?
Answer: ≥ 20 µM

Question: And the Kd [14, 34]?
Answer: ≥ 20 µM

Question: And the Kd [15]?
Answer: ≥ 20 µM

Question: What about the Kd [16] of the same sequence?
Answer: ≥ 20 µM

Question: What about the Kd [17] of the same sequence?
Answer: 0.914 µM

Question: And the Kd [18, 34]?
Answer: ≥ 20 µM

Question: What about the Kd [19, 34] of the same sequence?
Answer: ≥ 20 µM

Question: And the Kd [20]?
Answer: 0.26 µM

Question: What about the Kd [21] of the same sequence?
Answer: 0.39 µM

Question: And the Kd [22, 34]?
Answer: ≥ 20 µM

Question: And the Kd [23, 34]?
Answer: ≥ 20 µM

Question: What about the Kd [24] of the same sequence?
Answer: ≥ 20 µM

Question: What about the Kd [25] of the same sequence?
Answer: ≥ 20 µM

Question: And the Kd [26, 34]?
Answer: ≥ 20 µM

Question: And the Kd [27, 34]?
Answer: ≥ 20 µM

Question: And the Kd [28]?
Answer: 2.48 µM

Question: For TLLESFLFY, which Kd [29] is on record?
Answer: ≥ 20 µM

Question: And the Kd [30]?
Answer: ≥ 20 µM

Question: What about the Kd [12, 35] of the same sequence?
Answer: ≥ 20 µM

Question: What about the Kd [14, 35] of the same sequence?
Answer: ≥ 20 µM

Question: And the Kd [18, 35]?
Answer: ≥ 20 µM

Question: And the Kd [31]?
Answer: ≥ 20 µM

Question: What about the Kd ([19]; source organism: Mycobacterium tuberculosis str. Haarlem) of the same sequence?
Answer: ≥ 20 µM

Question: What about the Kd [22, 35] of the same sequence?
Answer: ≥ 20 µM

Question: And the Kd [23, 35]?
Answer: 0.01 µM

Question: What about the Kd [26, 35] of the same sequence?
Answer: ≥ 20 µM

Question: And the Kd [27, 35]?
Answer: ≥ 20 µM

Question: And the Kd [32]?
Answer: ≥ 20 µM

Question: And the Kd [33]?
Answer: ≥ 20 µM
